For assay [1], the target named is death receptor 4 (DR4, TRAIL-R1) on cells (UniProt O00220). Description: cell-based or functional assay.
The next assay deals with rhTRAIL variant D218Y. Description: competitive ELISA, soluble DR5-Ig varied, immobilised DR4-Ig. (ELISA stands for enzyme-linked immunosorbent assay.)
A further assay concerns the target rhTRAIL variant D218H. The assay is described as above.
The target in assay [2] is death receptor 5 (DR5, TRAIL-R2) on cells (UniProt O14763). Description: cell-based or functional assay.

Sequence of WT rhTRAIL (TRAIL amino acids 114-281 preceded by a methionine) (ligand) (P50591 114-281): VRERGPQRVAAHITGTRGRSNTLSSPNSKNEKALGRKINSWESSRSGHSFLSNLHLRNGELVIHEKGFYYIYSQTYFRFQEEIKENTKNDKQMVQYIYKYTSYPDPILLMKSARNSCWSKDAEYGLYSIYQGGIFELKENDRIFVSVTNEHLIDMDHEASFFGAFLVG

In assay [1], rhTRAIL variant S215D (ligand) returned an apoptosis (Annexin V staining) in EM-2 cells, 24 h; fold lower concentration than WT of 5 fold and an apoptosis (Annexin V staining) in ML-1 cells, 24 h; fold lower concentration than WT of 2 fold. Regarding “DR5-Ig receptor chimera (from UniProt O14763 56-182) (Fc fusion)”, the fold less efficient in achieving 50% reduction of binding, against rhTRAIL WT with rhTRAIL variant D218Y and in the assay with rhTRAIL variant D218H was > 9 fold in each case. In turn, “WT rhTRAIL (TRAIL amino acids 114-281 preceded by a methionine) (ligand)” registered an apoptosis (Annexin V positivity) in Colo205 cells in assay [2] of 20 ng/mL. In the case of rhTRAIL variant R149I (ligand), in assay [1], the apoptosis (Annexin V staining) in EM-2 cells, 24 h; fold lower concentration than WT is 5 fold and the apoptosis (Annexin V staining) in ML-1 cells, 24 h; fold lower concentration than WT came to 2 fold.

Source of the values: US20110200552A1.
